In PMC9273615, “Regulation of AUXIN RESPONSE FACTOR condensation and nucleo-cytoplasmic partitioning” (Nature Communications, 2022):

Columns and labels:
[1] = target: T1, GST-AFF1 (AUXIN RESPONSE FACTOR F-BOX1, At3g49150) (Arabidopsis thaliana (Mouse-ear cress), UniProt Q9M3B7); test: GST pull-down with immunoblot
T1 chain: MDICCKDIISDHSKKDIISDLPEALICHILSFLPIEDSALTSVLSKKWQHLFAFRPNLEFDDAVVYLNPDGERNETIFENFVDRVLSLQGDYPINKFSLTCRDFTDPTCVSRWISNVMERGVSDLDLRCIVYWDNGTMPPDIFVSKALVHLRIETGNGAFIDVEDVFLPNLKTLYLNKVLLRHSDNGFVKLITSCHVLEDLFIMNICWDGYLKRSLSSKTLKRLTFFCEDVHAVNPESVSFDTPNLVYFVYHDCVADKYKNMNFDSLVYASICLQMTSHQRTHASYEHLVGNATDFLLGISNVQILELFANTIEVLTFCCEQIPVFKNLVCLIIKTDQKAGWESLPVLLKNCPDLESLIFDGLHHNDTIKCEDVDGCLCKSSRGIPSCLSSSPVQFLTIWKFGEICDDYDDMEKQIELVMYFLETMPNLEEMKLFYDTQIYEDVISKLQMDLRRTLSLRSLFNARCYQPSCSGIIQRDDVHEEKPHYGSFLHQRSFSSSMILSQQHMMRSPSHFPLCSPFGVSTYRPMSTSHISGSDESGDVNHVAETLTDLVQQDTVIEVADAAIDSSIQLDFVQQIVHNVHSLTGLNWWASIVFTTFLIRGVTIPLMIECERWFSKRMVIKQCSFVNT

[2] = target: T2, GST-AFF1 (AUXIN RESPONSE FACTOR F-BOX1, At3g49150) (Arabidopsis thaliana, UniProt Q9M3B7 1-630); test: pull-down; 2 μg GST fusion immobilised on glutathione agarose, mixed with 2 μg His-ASK1, 4 °C, 2 hr; six washes; immunoblot with anti-His and anti-GST; settings: both partners purified
T2 construct: AUXIN RESPONSE FACTOR F-BOX1 (AFF1), F-box protein encoded by At3g49150, Arabidopsis thaliana; also called GST-AFF1 recombinant protein; not shown: GST, N-terminal, kept
T2 sequence (looked up): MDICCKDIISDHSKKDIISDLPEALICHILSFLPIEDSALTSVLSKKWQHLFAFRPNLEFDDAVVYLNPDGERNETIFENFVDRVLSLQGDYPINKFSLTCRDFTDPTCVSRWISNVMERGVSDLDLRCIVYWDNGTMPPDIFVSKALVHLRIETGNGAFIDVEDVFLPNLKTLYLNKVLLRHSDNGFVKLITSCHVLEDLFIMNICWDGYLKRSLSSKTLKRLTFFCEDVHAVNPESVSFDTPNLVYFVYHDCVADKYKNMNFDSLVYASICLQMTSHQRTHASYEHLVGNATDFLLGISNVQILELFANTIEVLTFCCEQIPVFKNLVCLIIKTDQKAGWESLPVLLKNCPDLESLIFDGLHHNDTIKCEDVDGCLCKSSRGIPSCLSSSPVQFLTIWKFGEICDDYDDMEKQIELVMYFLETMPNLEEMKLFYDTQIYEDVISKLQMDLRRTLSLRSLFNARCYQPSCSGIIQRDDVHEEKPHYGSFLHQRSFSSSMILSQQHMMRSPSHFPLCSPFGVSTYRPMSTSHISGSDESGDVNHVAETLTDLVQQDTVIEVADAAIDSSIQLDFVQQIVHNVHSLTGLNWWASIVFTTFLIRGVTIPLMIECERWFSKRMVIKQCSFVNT

B1: His-ASK1 (ARABIDOPSIS SKP1-LIKE 1) (natural protein, UniProt Q39255 1-160, looked up)
chain: MSAKKIVLKSSDGESFEVEEAVALESQTIAHMVEDDCVDNGVPLPNVTSKILAKVIEYCKRHVEAAASKAEAVEGAATSDDDLKAWDADFMKIDQATLFELILAANYLNIKNLLDLTCQTVADMIKGKTPEEIRTTFNIKNDFTPEEEEEVRRENQWAFE
notes: ARABIDOPSIS SKP1-LIKE (ASK1), Arabidopsis thaliana; not shown: His, N-terminal, kept
B1: binds [1]; binds [2].
